Values of other authors in patent US7858117B2, “Amphoteric liposomes and their use” (Novosom AG, priority 2002, dated 2010).

| Substance | pI (protein) | pK value of the carboxyl group (state of the art) |
| --- | --- | --- |
| lysozyme | 11.5 | – |
| cholesterol hemisuccinate | – | approximately 4.5 |
